Data as given in publication PMC4675558.

Biological target: T1, Cdc53(267-851)/GST-Rbx1 complex expressed in bacteria, Q08273
T1 chain: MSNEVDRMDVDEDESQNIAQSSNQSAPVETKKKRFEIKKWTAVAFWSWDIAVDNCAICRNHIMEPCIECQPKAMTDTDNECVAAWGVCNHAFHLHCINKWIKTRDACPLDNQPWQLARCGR
Test: in vitro binding assay (MBP pull-down on amylose beads, Western blot quantification)
Conditions: chain shown with the change, bacterial lysate expressing Cdc53(267-851)/Rbx1, normalized to Amido black signal of MBP tagged protein, read off a plot

B1: (MBP)-Met30(1-186), P39014 M178E; I179E (protein)
chain: MRRERQRMMSFEDKDKDDLDNSNSNNSSEMTDTAMMPPLKRLLITGSSDDLAQGSSGKKKMTMATRSPSSSPDLATNDSGTRVQPLPEYNFTKFCYRHNPDIQFSPTHTACYKQDLKRTQEINANIAKLPLQEQSDIHHIISKYSNSNDKIRKLILDGILSTSCFPQLSYISSLVTHEEKIDFISI
response (Cdc53/Amido Black) (Exp 1, parent: est. 3.1): 0.15 | response (Cdc53/Amido Black) (Exp 2, parent: est. 7.3): 2.9 | response (Cdc53/Amido Black) (Exp 3, parent: est. 4.6): 0.45
